Source: patent publication US20240209088A1 (NMI NATURWISSENSCHAFTLICHES UND MEDIZINISCHES INSTITUT AN …, published 2024)

T1: murine CD4 on mouse CD4+ cells (mouse, UniProt P06332 27-457)
T1 construct: whole, on cells; also called murine CD4+ lymphocytes
T1 sequence (looked up): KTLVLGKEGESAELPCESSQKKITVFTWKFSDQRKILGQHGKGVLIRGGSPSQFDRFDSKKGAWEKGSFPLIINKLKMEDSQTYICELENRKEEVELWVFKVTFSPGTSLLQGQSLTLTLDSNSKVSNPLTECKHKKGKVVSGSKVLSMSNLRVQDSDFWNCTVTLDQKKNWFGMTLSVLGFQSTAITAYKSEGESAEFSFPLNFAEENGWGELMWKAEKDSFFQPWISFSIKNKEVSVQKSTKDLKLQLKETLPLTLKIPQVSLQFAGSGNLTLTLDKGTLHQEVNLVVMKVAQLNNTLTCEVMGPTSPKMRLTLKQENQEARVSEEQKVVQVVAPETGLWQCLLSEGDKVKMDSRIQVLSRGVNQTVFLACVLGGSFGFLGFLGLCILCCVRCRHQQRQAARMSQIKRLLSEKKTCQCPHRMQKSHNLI


Assays:
[1] = target: T2, full-length human CD4 on cells (human, UniProt P01730 26-458); assay: live-cell immunofluorescence of CHO-hCD4 cells, unlabeled Nb detected with anti-VHH Cy5 secondary antibody
T2 construct: whole, on cells; Stably expressed (CHO-hCD4, HEK293-hCD4) or endogenous (PBMCs, human CD4+ cells from blood, HPB-ALL, T cell lines); also called hCD4; cell-resident hCD4

[2] = target: T2, full-length human CD4 on cells; assay: flow cytometry on cells expressing hCD4
Method: (§1) (E) EC₅₀ determination by flow cytometry.
(§2) For each staining condition 200,000 cells were incubated with suitable dilution series of CD4 nanobodies at 4° C. for 30 min. Cells were washed two times and for detection Cy5 AffiniPure Goat Anti-Alpaca IgG, VHH domain (Jackson ImmunoResearch) was applied for 15 min. […] Final data analysis was performed via FloJo10® software.

[3] = target: T3, recombinant extracellular portion of human CD4 (domains D1-4) (human, UniProt P01730 26-396, for BLI biotinylated with 3-fold molar excess of biotin-N-hydroxysuccinimide ester; not biotinylated in HDX-MS); assay: BLI, biotinylated extracellular domain of hCD4 on streptavidin sensor, serial dilutions of Nb
T3 construct: extracellular domain; also called recombinant hCD4; extracellular domain of hCD4
Method: (§3) To determine the binding affinity of purified Nbs to recombinant hCD4, biolayer interferometry (BLItz, ForteBio) was performed. First, CD4 was biotinylated by 3-fold molar excess of biotin-N-hydroxysuccinimide ester. CD4 was then immobilized at single-use high-precision streptavidin biosensors (SAX) according to manufacturer's protocols. […] As a reference run, PBS was used instead of Nb in the association step. […] Recorded sensograms were analyzed using the BLItzPro software and dissociation constants (KD) were calculated based on global fits.
(§4) To quantitatively assess affinities, biolayer interferometry (BLI) measuring serial dilutions of Nbs were performed on the biotinylated extracellular domain of hCD4 immobilized at the sensor tip.

[4] = target: T3, recombinant extracellular portion of …; assay: biolayer interferometry, biotinylated hCD4 immobilized on streptavidin biosensors
Method: (§5) (D) For biolayer interferometry-based affinity measurements, biotinylated hCD4 was immobilized on streptavidin biosensors.
as §3

[5] = target: T2, full-length human CD4 on cells; assay: flow cytometry, percentage of positively stained hCD4-expressing cells against Nb concentration, four-parametric sigmoidal model; the curve rises only to about 3 % at the highest concentration near 10^-4.5 M
[6] = target: T3, recombinant extracellular portion of …; assay: BLI
[7] = target: T3, recombinant extracellular portion of …; assay: biolayer interferometry on human CD4; the sheet prints Conc: 0.625 - 5 nM, four sensorgrams up to about 0.17 nm
[8] = target: T1, murine CD4 on mouse CD4+ cells; assay: flow cytometry of mouse CD4+ cells from spleen and lymph nodes
[9] = target: T3, recombinant extracellular portion of …; assay: BLI (affinity constants predetermined by BLI analysis)
Method: as §3

[10] = target: T2, full-length human CD4 on cells; assay: flow cytometry on HEK293-hCD4 cells, detection with anti-VHH Cy5 antibody; flow cytometry, full-length hCD4 on HEK293-hCD4 cells
[11] = target: T3, recombinant extracellular portion of …; assay: BLI, biotinylated extracellular domain of hCD4 on streptavidin sensor, serial dilutions of Nb; BLI on biotinylated extracellular domain of hCD4 at the sensor tip
Method: as §3, §4

[12] = target: T2, full-length human CD4 on cells; assay: flow cytometry, percentage of positively stained hCD4-expressing cells against Nb concentration; the subscript is redrawn as 56, EC50 by the legend paragraph 99
Method: as §1, §2

[13] = target: T3, recombinant extracellular portion of …; assay: biolayer interferometry, biotinylated hCD4 immobilized on streptavidin biosensors, four Nb concentrations; the subscript is redrawn as O, KD by the legend paragraph 99
Method: as §5, §3

[14] = target: T4, hCD4 domain-deletion mutant lacking domain D1 (CD4_ΔD1) (human, UniProt P01730 26-458); assay: live-cell immunofluorescence of CHO cells transiently expressing the domain-deletion mutant, CF568-labeled Nb
T4 construct: whole, on cells; Transiently expressed in CHO wt cells; also called pcDNA3.1_CD4_ΔD1_IRES-eGFP

[15] = target: T5, hCD4 domain-deletion mutant lacking domains D1 and D2 (CD4_ΔD1ΔD2) (human, UniProt P01730 26-458); assay: as above
T5 construct: whole, on cells; Transiently expressed in CHO wt cells; also called pcDNA3.1_CD4_ΔD1ΔD2_IRES-eGFP

[16] = target: T2, full-length human CD4 on cells; assay: in vitro radioimmunoassay on HPB-ALL cells (data not shown)
[17] = target: T2, full-length human CD4 on cells; assay: flow cytometry, percentage of positively stained hCD4-expressing cells against Nb concentration, four-parametric sigmoidal model
[18] = target: T2, full-length human CD4 on cells; assay: flow cytometry on HEK293-hCD4 cells, detection with anti-VHH Cy5 antibody
Method: For each staining condition 200,000 cells were incubated with suitable dilution series of CD4 nanobodies at 4° C. for 30 min. Cells were washed two times and for detection Cy5 AffiniPure Goat Anti-Alpaca IgG, VHH domain (Jackson ImmunoResearch) was applied for 15 min. […] After two washing steps, samples were resuspended in 200 μl FACS buffer and analyzed with a BD FACSMelody Cell Sorter. Final data analysis was performed via FloJo10® software.
In addition, corresponding EC50 values were determined with full-length plasma membrane-located hCD4 on HEK293-hCD4 cells by flow cytometry.

[19] = target: T3, recombinant extracellular portion of …; assay: biolayer interferometry, biotinylated hCD4 immobilized on streptavidin biosensors; box in the panel prints [CD4_Nb1]: 15.625-125 nM
Method: as §3

Row | Binder | EC50 [2] [nM] | Kd [3] [nM] | koff [4] [s⁻¹] | kon [4] [M⁻¹ s⁻¹] | Kd [9] [nM] | other results
1 | CD4-Nb5 (VHH, Unlabeled; excluded from further analyses after the live-cell staining) VHH: EVQLQESGGGLVQAGGSLRLSCKVSGRTFGTYAMGWFRQAPGKEREFVAVISWIKGNTYVADSVLGRFTISRDNARNWLHLQMYSLKPEDTATYYCAASSTVTLPTTLDPYTYWGQGTPVTVSS |  |  |  |  |  | binding result [1]: no binding (tested: not printed on the sheet)
2 | CD4-Nb4 (VHH, Unlabeled, expressed in E. coli) VHH: EVQLQESGGALAQPGGSLRLSCAVSGFTFGTYGMGWLRQAPGKGREFVAAINWIHGGEIYADSVKGRFTISKDNAKNTLYLQMDSLKPEDTAVYYCAARSGTSLYTGVDEYQYWGQGTQVTVSS | 7360 | 135 | 0.016 | 118000 |  | EC50 [5]: 7360 nM
3 | mutant CD4-Nb1 (all lysine residues replaced with arginine residues) (VHH, Expressed in bacteria; also called mutant nanobody; mutant version of the nanobody) VHH: EVQLVESGGGLVQPGGSLRLSCAASGFTFSRLAMSWHREPPGRGREWLADIDSSGDTTDYLASVRGRFTISRDNARNTLYLQMDSLRSEDTGVYYCASREDPPGYWGQGTQVTVSS |  |  |  |  |  | Kd [6]: ~1 nM; Kd [7]: 1 nM
4 | CD4-Nb1-Cy5.5 (VHH, C-terminus sortase-coupled to H-Gly-Gly-Gly-propyl-azide, then click-labeled with DBCO-Cy5.5, also called hCD4-Nb1-Cy5.5; Cy5.5-labeled CD4-Nb1) VHH: EVQLVESGGGLVQPGGSLRLSCAASGFTFSKLAMSWHREPPGKGREWLADIDSSGDTTDYLASVKGRFTISRDNAKNTLYLQMDSLKSEDTGVYYCASREDPPGYWGQGTQVTVSS |  |  |  |  |  | binding result [8]: no binding
5 | CD4-Nb1 (VHH, Unlabeled, expressed in E. coli; also called non-mutated CD4-Nb1) VHH: EVQLVESGGGLVQPGGSLRLSCAASGFTFSKLAMSWHREPPGKGREWLADIDSSGDTTDYLASVKGRFTISRDNAKNTLYLQMDSLKSEDTGVYYCASREDPPGYWGQGTQVTVSS | 0.74 |  | 0.000613 | 121000 | 5.1 | EC50 [10]: ~0.7 nM; Kd [11]: ~5 nM; EC50 [12]: 0.74 nM; Kd [13]: 5.09 nM
6 | CD4-Nb1 sortase-coupled to the fluorescent dye CF568 (VHH, C-terminus sortase-coupled to the CF568-coupled peptide H-Gly-Gly-Gly-Doa-Lys-NH2 (labeling ratio 1:1), also called CF568-labeled CD4-Nb1; CD4-Nbs-CF568) VHH: EVQLVESGGGLVQPGGSLRLSCAASGFTFSKLAMSWHREPPGKGREWLADIDSSGDTTDYLASVKGRFTISRDNAKNTLYLQMDSLKSEDTGVYYCASREDPPGYWGQGTQVTVSS |  |  |  |  |  | binding result [14]: no binding (tested: not printed on the sheet); binding result [15]: no binding (tested: not printed on the sheet)
7 | ^64Cu-CD4-Nb1 (VHH, azide-coupled C-terminus reacted with BCN-NODAGA and radiolabeled with 64Cu, also called ^64Cu-hCD4-Nb1) VHH: EVQLVESGGGLVQPGGSLRLSCAASGFTFSKLAMSWHREPPGKGREWLADIDSSGDTTDYLASVKGRFTISRDNAKNTLYLQMDSLKSEDTGVYYCASREDPPGYWGQGTQVTVSS |  |  |  |  |  | fold over the non-specific binding to CD4-negative DHL cells or of the 64Cu-GFP-Nb control [16]: ~30 times
8 | CD4-Nb3 (VHH, Unlabeled, expressed in E. coli) VHH: HVQLVESGGGLVQPGGSLRLSCAVSGFALEYYAIGWFRQAPGKERERVACMSASGGVINYSESVKGRFTISRDNAKNTVYLQMNTLKPEDTAVYYCAAEKAYYGSSWAECYLMMDYWGKGTLVTVSS | 533 | 75 | 0.00618 | 82000 | 75.3 | EC50 [17]: 533 nM
9 | CD4-Nb2 (VHH, Unlabeled, expressed in E. coli) VHH: EVQLVESGGGSVQPGGSLRLSCGASGFDVDYYAIGWFRQAPGKEREGVSCIASSDGSTYYADSVKGRFTISRDNAKNTVYLQMNSLKPEDTAVYYCAADATCPYYCSGSVCYLETGMDYWGEGTLVTVSS | 0.73 | ~7 | 0.000795 | 122000 | 6.5 | EC50 [18]: ~0.7 nM; EC50 [17]: 0.73 nM; Kd [19]: 6.53 nM
